Legend:
[1] = target: EhODC Cys334Ala mutant (Entamoeba histolytica); experiment: SEC; gel filtration of the active-site mutants, data not shown
[2] = target: EhODC Gly361Tyr mutant (Entamoeba histolytica); experiment: SEC; HiLoad 16/60 Superdex 200, buffer B (50 mM Tris-HCl pH 7.5, 250 mM NaCl, 0.2 mM DTT, 5% glycerol), 500 µl of ~10 mg/ml protein, 0.5 ml/min, calibrated with HMW standards; the wild type was also run after 4 h at 4°C with 2 M or 4 M NaCl or urea (partial dissociation to monomer)
[3] = target: EhODC Cys334Ala mutant (Entamoeba histolytica)
[4] = target: EhODC Lys57Ala mutant (Entamoeba histolytica); experiment: SEC; gel filtration of the active-site mutants, data not shown
[5] = target: EhODC Lys157Ala mutant (Entamoeba histolytica); experiment: SEC; HiLoad 16/60 Superdex 200, buffer B (50 mM Tris-HCl pH 7.5, 250 mM NaCl, 0.2 mM DTT, 5% glycerol), 500 µl of ~10 mg/ml protein, 0.5 ml/min, calibrated with HMW standards; the wild type was also run after 4 h at 4°C with 2 M or 4 M NaCl or urea (partial dissociation to monomer)
[6] = target: the molecule itself; experiment: cross-linking; glutaraldehyde vapour (12.5%, acidified) over a hanging drop of 15 µl protein at 1 mg/ml in 20 mM sodium phosphate pH 7.5, 37°C, 10 min; 12% SDS-PAGE, Coomassie

Molecule: EhODC Cys334Ala mutant (enzyme)
- stoichiometry N [1]: 2

Molecule: EhODC Gly361Tyr mutant (enzyme)
- stoichiometry N [2]: 2

Molecule: EhODC Lys57Ala mutant (enzyme)
- ornithine decarboxylase activity (colorimetric DAO/HRP assay) of the two inactive mutants mixed in equal concentration (1:1), relative to wild type; each mutant alone ~2% (% of wild-type activity) [3]: 29
- stoichiometry N [4]: 2

Molecule: EhODC Lys157Ala mutant (enzyme)
- stoichiometry N [5]: 2

B1: Ornithine decarboxylase from Entamoeba histolytica (EhODC), wild type (enzyme, UniProt Q58P26 1-413, looked up)
chain: MKQTSLEVKEFALNLISQFEPENQPLGFWIFDTEGVEKAVERWKKNMPTVRPCFAVKCNPEPHLVKLLGELGCGFDCASLNEIKEVLDLGFNPEDITYSQTFKPYNQLIEASHLGINHTIVDSIDEVQKIAKYAPKMGIMIRIMENDTSAGHVFGEKFGLHDDEVEIVLKEIKDKGLNLDGVHFHVGSDSHNSEVFTKALTKARNTVTLAEQFGMKPYLIDIGGGFSQVAPFEEFAATIEKTIKELEFPERTRFIAEPGRYMASNAFHLVSSLHGKRVRIQNGKKQIEYTSGDGLHGSFGCCIWFEKQKSCECITQKVNENTKMYESIIYGPSCNGSDKVATQELPEMEPGKDWLLFPNMGAYTISMATNFNGFEERNHVIYTLPLKSTKIIQIPKSIECNSVPSLNGIPHYA
notes: Ornithine decarboxylase, Entamoeba histolytica, NCBI AAX35675, 413 amino acids, predicted 46.43 kDa; full-length gene in pET30a; The His tag is followed by an enterokinase site and was removed before gel filtration; PLP is the cofactor; also called E. histolytica ODC; source: E. coli BL21 (DE3), purified (HisTrap HP, enterokinase cleavage, second HisTrap, Superdex 200); not shown: His6, …
- stoichiometry N [6]: 2

— paper PMC3289617, “Biochemical, Mutational and In Silico Structural Evidence for a Functional Dimeric Form of the Ornithine Decarboxylase from Entamoeba histolytica” (PLoS Neglected Tropical Diseases, 2012)
